According to the RNAGym collection of RNA variant scans (doi:10.1073/pnas.2313332121):
This sample holds only a part of the variants without activity.

B1: TPR 5TU (parent)
chain: GGAUCUUCUCGAUCUAACAAAAAAGACAAAUCUGCCACAAAGCUUGAGAGCAUCUUCGGAUGCAGAGGCGGCAGCCUUCGGUGGCGCGAUAGCGCCAACGUUCUCAACUAUGACACGCAAAACGCGUGCUCCGUUGAAUGGAGUUUAUCAUG

Variants of: B1
Experiment: polymerase ribozyme fitness, log enrichment relative to wild type (log ratio); higher = more active; in vitro selection for triplet polymerase activity
How it was run: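 PCR was used to build mutant libraries for each subunit of a heterodimeric triplet polymerase ribozyme, which were then transcribed. A single in vitro selection round, in triplicate, used a frozen incubation at −7 °C and recovered extended constructs by gel excision, streptavidin beads and RT-PCR. Fitness is the logarithm of genotype enrichment relative to wild-type enrichment, averaged over replicates with inverse-variance weights. The logarithm is base 2, and after Illumina sequencing only genotypes with ≥10 input reads and ≥1 read per output were kept.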

Variant | polymerase ribozyme fitness (log ratio)
A19C G48C C51A G86U G128U | ≤ -4.2
C27G C63A C85U C87A G136A A138C | ≤ -4.2
A29U A107C | ≤ -4.2
A41U G58A G74U C108A A120G G141A | ≤ -4.2
U7A A29C C85U C87U G143C A150G | ≤ -4.2
A89U U127C G136C A137C | -4.13
A40U G86A | -0.914
U82G G86A A120G | -1.53
C54A C96G C103U C116A G136U | -4.12
C18U U55A | -1.49
C76A C131G | -3.98
G59A C85U | -1.79
U6G C10A A16G A20C U53A C54G A64U C85U G86A A113U U145C | ≤ -4.2
C8U A28U G62U A113C | ≤ -4.2
C103A A120C G124A U134A | -3.66
A19U A20C G59A A89U C95U G126C | -0.274
G50U C51U C72U C93G U101C C108A G112U A113U A121G | ≤ -4.2
G25U G42A C87G | ≤ -4.2
A24U C38U | 0.361
C85G C96U C116A A137C | ≤ -4.2
A40U A91U U102A U104C U139A | ≤ -4.2

Variant | polymerase ribozyme fitness (log ratio)
G62C C85A | -3.75
A21G C57A | 1.14
U33G U55A G70A G80C | ≤ -4.2
C69A C85G A121C | -3.43
C116U C125U U146C | -0.74
U7C U9G A17U A26G G84A C116A | -3.98
A22C A37C | -0.165
A73G C85A | -1.22
C54G G65U A73U C87A A106U G140A G143A | ≤ -4.2
G42A U55A | -3.81
A20C C85U A89G A106G | -2.07
C125U G141C | -3.85
U7C G11C G59A G71C C76U G84U A138C | ≤ -4.2
A29U A73G C93A G128U G140U | ≤ -4.2
C85U C99G G136U | -2.88
A39C G81C C85U C116A G141C | ≤ -4.2
A66G C93U C108U C132G C149A | ≤ -4.2
U53A C132U U146G | -3.87
G50U G86A C93U C96U | -0.529
C54A U148C | -3.69
C57A G92U | -0.638

Variant | polymerase ribozyme fitness (log ratio)
A26C G81A C85G C87A G141U C149G | ≤ -4.2
A41C G59C C75U G83C | -2.72
C38U U82C C85U U90G C99U C105U C108G A120G | ≤ -4.2
A17U A73U C93U A120G | -1.86
C54A U144G | -0.801
G94A G143U | -3.57
G34U A40G C69U G80U C99U A107G U139G G140U U148C | ≤ -4.2
A40U G50U G80A G126A C132G | ≤ -4.2
U77G C93U G100U | ≤ -4.2
A39C A47U | -2.53
C57U G59C C95G C108U U148A | ≤ -4.2
U13C A39C U56A C95U G124A | -3.63
G58A A64U G74A C79A U90C C96A C149A | ≤ -4.2
G25C A60G G83C C96U G141U | -2.48
U6G C27A U33C C85A G88A U134C | ≤ -4.2
A122U U146C | -0.714
U102C U134A | -3.46
U82A C125G | -0.33
A26C C93A | -3.21
A22C A26U U56A G59C C87G U111C | ≤ -4.2
A37U A49C C63G C87G G124U | ≤ -4.2

Variant | polymerase ribozyme fitness (log ratio)
U4G A12G A17G C93U G141C | -3.94
A12G C93U | -1.21
C69U G84A A106C | -2.41
C69A C79A A115U C118A | ≤ -4.2
U56A A115G G124C | -1.61
C32U U55G U61C G84U G100C | ≤ -4.2
A29G G70A A120U G143A A150C | ≤ -4.2
A28U A49U U139G | ≤ -4.2
C85G G133U | ≤ -4.2
U6A A12C G58U A91C A98U C103G C131U | ≤ -4.2
G11U U53G C57G G59U G94A | -3.74
C10U A12C C54A C85U C108U | ≤ -4.2
A60U G80A C85A C93A | ≤ -4.2
C95A G141C | 0.744
A28U C72U | ≤ -4.2
G11A G67A C79G C87A C114G A137G | ≤ -4.2
A12U G25U A37G A47C U77A C95G G141A | ≤ -4.2
U56C C108U | -4.01
G71U A120G U146C | -2.36
A24G C87A | ≤ -4.2
